Laboratory results: patent publication US20090258001A1

Key:
[1] = target: CD3 (CD3/TCR complex) on CD4+ and CD8+ T cells of patients (human) (UniProt P07766); assay: flow cytometry of CD4+ T cells, anti-human IgG; Example 4 Cohort A*, end of 0.1 mg infusion
[2] = target: CD3 (CD3/TCR complex) on CD4+ and CD8+ T cells of patients (human) (UniProt P07766); assay: flow cytometry of CD4+ T cells, anti-human IgG; Example 4 Cohort A, end of 0.3 mg infusion
[3] = target: CD3 (CD3/TCR complex) on CD4+ and CD8+ T cells of patients (human) (UniProt P07766); assay: flow cytometry of CD4+ T cells, anti-human IgG; Example 4 Cohort A, end of 0.2 mg infusion
[4] = target: CD3 (CD3/TCR complex) on CD4+ and CD8+ T cells of patients (human) (UniProt P07766); assay: flow cytometry of CD4+ T cells, anti-human IgG; Example 4 Cohort A*, end of 0.15 mg infusion
[5] = target: CD3 (CD3/TCR complex) on CD4+ and CD8+ T cells of patients (human) (UniProt P07766); assay: flow cytometry of CD4+ T cells, anti-human IgG; Example 4 Cohort C, 2 hours after 1.0 mg infusion
[6] = target: CD3 (CD3/TCR complex) on CD4+ and CD8+ T cells of patients (human) (UniProt P07766); assay: flow cytometry of CD4+ T cells, anti-human IgG; Example 4 Cohort B, about 24 hours after 0.75 mg infusion
[7] = target: CD3 (CD3/TCR complex) on CD4+ and CD8+ T cells of patients (human) (UniProt P07766); assay: flow cytometry of CD4+ T cells, anti-human IgG; Example 3 Cohort 2 (0.5 mg x3), 2 hours after end of dosing
[8] = target: CD3 (CD3/TCR complex) on CD4+ and CD8+ T cells of patients (human) (UniProt P07766); assay: flow cytometry of CD4+ T cells, free CD3 sites by biotinylated TRX4; Example 3 Cohort 3, 0.3 mg
[9] = target: CD3 (CD3/TCR complex) on CD4+ and CD8+ T cells of patients (human) (UniProt P07766); assay: flow cytometry of CD4+ T cells, free CD3 sites by biotinylated TRX4; Example 4 Cohort A, 0.2 mg
[10] = target: CD3 (CD3/TCR complex) on CD4+ and CD8+ T cells of patients (human) (UniProt P07766); assay: flow cytometry of CD4+ T cells, free CD3 sites by biotinylated TRX4; Example 4 Cohort B, 0.3 mg
[11] = target: CD3 (CD3/TCR complex) on CD4+ and CD8+ T cells of patients (human) (UniProt P07766); assay: flow cytometry of CD4+ T cells, anti-human IgG; Example 4 Cohort C, end of 0.2 mg infusion
[12] = target: CD3 (CD3/TCR complex) on CD4+ and CD8+ T cells of patients (human) (UniProt P07766); assay: flow cytometry of CD4+ T cells, free CD3 sites by biotinylated TRX4; Example 4 Cohort C, 2 hours after last infusion
[13] = target: CD3 (CD3/TCR complex) on CD4+ and CD8+ T cells of patients (human) (UniProt P07766); assay: flow cytometry of CD4+ T cells, free CD3 sites by biotinylated TRX4; Example 3 Cohort 2, third 0.5 mg dose
[14] = target: CD3 (CD3/TCR complex) on CD4+ and CD8+ T cells of patients (human) (UniProt P07766); assay: flow cytometry of CD4+ T cells, anti-human IgG; Example 4 Cohort B, 2 hours after 0.75 mg infusion
[15] = target: CD3 (CD3/TCR complex) on CD4+ and CD8+ T cells of patients (human) (UniProt P07766); assay: flow cytometry of CD4+ T cells, free CD3 sites by biotinylated TRX4; Example 3 Cohort 2, first 0.5 mg dose
[16] = target: CD3 (CD3/TCR complex) on CD4+ and CD8+ T cells of patients (human) (UniProt P07766); assay: flow cytometry of CD4+ T cells, free CD3 sites by biotinylated TRX4; Example 4 Cohort B, Day 5
[17] = target: CD3 (CD3/TCR complex) on CD4+ and CD8+ T cells of patients (human) (UniProt P07766); assay: flow cytometry of CD4+ T cells, anti-human IgG; Example 4 Cohort B, end of 0.2 mg infusion
[18] = target: CD3 (CD3/TCR complex) on CD4+ and CD8+ T cells of patients (human) (UniProt P07766); assay: flow cytometry of CD4+ T cells, free CD3 sites by biotinylated TRX4; Example 3 Cohort 3, 2 hours after 0.5 mg infusion
[19] = target: CD3 (CD3/TCR complex) on CD4+ and CD8+ T cells of patients (human) (UniProt P07766); assay: flow cytometry of CD4+ T cells, free CD3 sites by biotinylated TRX4; Example 3 Cohort 1, end of first 0.1 mg infusion
[20] = target: CD3 (CD3/TCR complex) on CD4+ and CD8+ T cells of patients (human) (UniProt P07766); assay: flow cytometry of CD4+ T cells, anti-human IgG; Example 4 Cohort B, end of 0.3 mg infusion
[21] = target: CD3 (CD3/TCR complex) on CD4+ and CD8+ T cells of patients (human) (UniProt P07766); assay: flow cytometry of CD4+ T cells, free CD3 sites by biotinylated TRX4; Example 4 Cohort B, 2 hours after last infusion
[22] = target: CD3 (CD3/TCR complex) on CD4+ and CD8+ T cells of patients (human) (UniProt P07766); assay: flow cytometry of CD4+ T cells, anti-human IgG; Example 4 Cohort C, end of 0.3 mg infusion
[23] = target: CD3 (CD3/TCR complex) on CD4+ and CD8+ T cells of patients (human) (UniProt P07766); assay: flow cytometry of CD4+ T cells, anti-human IgG; Example 4 Cohort A*, end of 0.05 mg infusion
[24] = target: CD3 (CD3/TCR complex) on CD4+ and CD8+ T cells of patients (human) (UniProt P07766); assay: flow cytometry of CD4+ T cells, free CD3 sites by biotinylated TRX4; Example 4 Cohort C, 0.1 mg
[25] = target: CD3 (CD3/TCR complex) on CD4+ and CD8+ T cells of patients (human) (UniProt P07766); assay: flow cytometry of CD4+ T cells, anti-human IgG; Example 3 Cohort 3, end of 0.1 mg infusion

UniProt P07766, sequence (P07766 23-207, chain 1 of 3): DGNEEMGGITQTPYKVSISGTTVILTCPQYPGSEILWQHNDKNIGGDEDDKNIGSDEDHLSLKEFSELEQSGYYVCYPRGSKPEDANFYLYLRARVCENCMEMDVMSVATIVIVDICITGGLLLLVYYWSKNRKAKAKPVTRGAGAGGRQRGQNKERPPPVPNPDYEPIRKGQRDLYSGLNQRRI
UniProt P07766, sequence (chain, as listed by the source, chain 2 of 3): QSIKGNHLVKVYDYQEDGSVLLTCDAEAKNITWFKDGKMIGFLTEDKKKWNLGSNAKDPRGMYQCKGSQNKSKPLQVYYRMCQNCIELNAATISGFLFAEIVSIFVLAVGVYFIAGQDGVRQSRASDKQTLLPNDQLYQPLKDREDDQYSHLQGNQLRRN
UniProt P07766, sequence (chain, as listed by the source, chain 3 of 3): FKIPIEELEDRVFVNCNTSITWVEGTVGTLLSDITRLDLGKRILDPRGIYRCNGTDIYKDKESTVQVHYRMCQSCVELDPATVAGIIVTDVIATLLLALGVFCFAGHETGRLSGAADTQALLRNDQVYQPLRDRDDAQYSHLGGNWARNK

cell-bound TRX4 (MESF of anti-human IgG) [1]: 700000 MESF units | cell-bound TRX4 (MESF of anti-human IgG) [2]: 600000 MESF units | cell-bound TRX4 (MESF of anti-human IgG) [3]: 375000 MESF units | cell-bound TRX4 (MESF of anti-human IgG) [4]: 800000 MESF units | cell-bound TRX4 (MESF of anti-human IgG) [5]: 600000 MESF units | cell-bound TRX4 (MESF of anti-human IgG) [6]: 200000 MESF units | cell-bound TRX4 (MESF of anti-human IgG) [7]: 400000 MESF units | percent saturation of CD3 [8]: 70% | percent saturation of CD3 [9]: 70% | percent saturation of CD3 [10]: 80% | cell-bound TRX4 (MESF of anti-human IgG) [11]: 1.2e+06 MESF units | percent saturation of CD3 [12]: 50% | percent saturation of CD3 [13]: 95% | cell-bound TRX4 (MESF of anti-human IgG) [14]: 550000 MESF units | percent saturation of CD3 [15]: 90% | percent saturation of CD3 [16]: 40% | cell-bound TRX4 (MESF of anti-human IgG) [17]: 400000 MESF | percent saturation of CD3 [18]: 45% | percent saturation of CD3 [19]: 37% | cell-bound TRX4 (MESF of anti-human IgG) [20]: 420000 MESF units | percent saturation of CD3 [21]: 70% | cell-bound TRX4 (MESF of anti-human IgG) [22]: 600000 MESF units | cell-bound TRX4 (MESF of anti-human IgG) [23]: 300000 MESF units | percent saturation of CD3 [24]: 50% | cell-bound TRX4 (MESF of anti-human IgG) [25]: 100000 MESF units
Substance: TRX4 antibody
